Key:
[1] = biological target: T1, SARS-CoV-2 spike RBD (WT) (Severe acute respiratory syndrome …, UniProt P0DTC2); experiment: BLI
[2] = biological target: T1, SARS-CoV-2 spike RBD (WT); experiment: ELISA; set-up: unit not given here

B1: D124 (antibody, V domains shown)
VH: QVQLQQWGAGLLKPSETLSLTCAVYGGPFTGYSWTWIRQSPGKGLEWIGEINHSGSTSYNPSLQSRVTFSIDTSKNQFSLELSSVTAADTAVYFCARGNRNRYHTSDWYYYGMDVWGQGTTVTVSS
VL: DIQMTQSPSSLSAYVGDRVTITCRASQGINTYLAWYQQKPGKVPRLLIYGASTLQSGVPSRFSGSGSGTEFTLTISSLQPEDIATYYCQKYNSAPRTFGQGTKVEIK
B1 showed a Kd [1] of 219 nM and a binding score [2] of 2540.

B2: D008 (antibody, V domains shown)
VH: QVQLVESGGGVVQPGRSLRLSCAASGFTFRSYGMHWVRQAPGKGLEWVAVISYDGSTKYYADSVKGRFTISRDNSKNTLYLQMNSLRAEDTAVYYCAKGGYYYDSNTYYVYWGQGTLVTVSS
VL: DIQMTQSPSSLSASVGDRVTITCQASQDISNHLNWYQQKPGKAPKLLIYDASNLETGVPSRFSGSGSGTDFTFTISSLQPEDIATYYCQQYDNLPPITFGQGTRLEIK
Work on B2 yielded a Kd [1] of 10.5 nM and a binding score [2] of 12.4.

B3: D006 (antibody, V domains shown)
VH: EVQLVQSGAEVKKPGESLKISCKGSGYSFTSYWIGWVRQMPGKGLEWMGIIYPGDSDTRYSPSFQGQVTISADKSISTAYLQWSSLKASDTAMYYCASFGRNDAFDIWGQGTMVTVSS
VL: not shown
B3 was tested, and the Kd [1] was 8.76 nM and the binding score [2] was 41.6.

B4: D025 (antibody, V domains shown)
VH: QVQLVESGGGVVQPGRSLRLSCAASGFTFSSYGMHWVRQAPGKGLEWVAVISYDGSNKYYADSVKGRFTISRDNSKNTLYLQMNSLRAEDTAVYYCAKRGQGYCGGDCFSGYFDYWGQGTLVTVSS
VL: not shown
Binder B4 has a Kd [1] of 172 nM and a binding score [2] of over 10000.

B5: D013 (antibody, V domains shown)
VH: QVQLVQSGAEVKKPGASVRISCKTSGYIFAYYFIHWFRQAPGQGPEWMGWINPKSGGTNYAQKFQDRVTMTTDSSITTAFMALRSLRSDDTAVYYCTREGVGTISDAGFGYWGQGTPVTVSS
VL: SYVLTQPPSVSVAPGKTATITCGGNNIGSKSVHWYHQKPGQAPVMVVYNDKERPSGIPERFSGSKSGNTATLTITWVEADDEADYYCQAWDRPSGYVFGTGTKVTVL
B5 gave a Kd [1] of 338 nM and a binding score [2] of 1330.

B6: D146 (antibody, V domains shown)
VH: QVQLVESGGGVVQPGRSLRLSCAASGFTFSSYGMHWVRQAPGKGLEWVAVISYDGSNKYYADSVKGRFTISRDNSKNTLYLQMNSLRAEDTAVYYCAKSLGSYCSSTSCYGGSFDYWGQGTLVTVSS
VL: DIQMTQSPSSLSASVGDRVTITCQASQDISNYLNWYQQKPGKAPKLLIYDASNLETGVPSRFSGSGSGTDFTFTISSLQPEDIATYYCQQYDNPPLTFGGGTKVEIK
B6 was tested, and the Kd [1] was 98.1 nM and the binding score [2] was 574.

B7: D063 (antibody, V domains shown)
VH: EVQLVQSGAEVKKPGESLKISCKGSGYSFTSYWIGWVRQMPGKGLEWMGIIYPGDSDTSPSFQGQVTISADKSISTAYLQWSSLKASDTAMYYCARVLNWNLGDYWGQGTLVTVSS
VL: not shown
For B7, the Kd [1] was 94.8 nM and the binding score [2] was 9040.

B8: C2716 (antibody, V domains shown)
VH: EVQLVESGGGLIQPGGSLRLSCAASGFIVSSNYMSWVRQAPGKGLEWVSVIYSGGSTYYADSVKGRFTISRDNSKNTLYLQMNSLRAEDTAVYYCARDLGSYGHFDYWGQGTLVTVSS
VL: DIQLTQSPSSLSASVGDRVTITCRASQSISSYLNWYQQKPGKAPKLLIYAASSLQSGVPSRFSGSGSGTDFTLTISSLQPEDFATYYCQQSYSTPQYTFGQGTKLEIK
B8 showed a Kd [1] of 370 nM and a binding score [2] of 1100.

B9: C2728 (antibody, V domains shown)
VH: QVQLVESGGGVVQPGRSLRLSCAASGFTFSSYGMHWVRQAPGKGLEWVAVIWYDGSNKYYADSVKGRFTISRDNSKNTLYLQMNSLRAEDTAVYYCARERPHPSITMIVPNNYGMDVWGQGTTVTVSS
VL: not shown
With B9 the Kd [1] was 536 nM and the binding score [2] was 132.

B10: D144 (antibody, V domains shown)
VH: EVQLVESGGGLVQPGGSLRLSCAASGFTFSSYWMHWVRQAPGKGLVWVSRINSDGSSTSYADSVKGRFTISRDNAKNTLYLQMNSLRAEDTAVYYCARVPDTAMVTGINYYYYYGMDVWGQGTTVTVSS
VL: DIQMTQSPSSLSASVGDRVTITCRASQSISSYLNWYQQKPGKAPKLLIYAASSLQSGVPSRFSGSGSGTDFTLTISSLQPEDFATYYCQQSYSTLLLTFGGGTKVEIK
B10 showed a Kd [1] of 19.2 nM and a binding score [2] of 24.8.

B11: C2690 (antibody, V domains shown)
VH: EVQLVESGGGVVQPGRSLRVSCAASGFTFSSYGMHWVRQAPGKGLEWVAVISYDGSNKYYADSVKGRFSISRDNSKNTLYLQMNSLRAEDTAVYYCAKVISSFGGGSLNYFDYWGQGTLVTVSS
VL: AIRMTQSPSSLSASVGDRVTITCQASQDISNYLNWYQQKPGKAPKLLIYDASNLETGVPSRFSGSGSGTDFTFTISSLQPEDIATYYCQQYDNLPITFGQGTRLEIK
With B11 the Kd [1] was 103 nM and the binding score [2] was 381.

B12: D101 (antibody, V domains shown)
VH: EVQLVESGGGLVQPGGSLRLSCAASGFTFSNYDMHWVRQATGKGLEWVSTIGTVGDTYYPGSVKGRFTISRENAKNSLYLQMNSLRAGDTAVYYCARGGGMTTVTLDVWGQGTTVTVSS
VL: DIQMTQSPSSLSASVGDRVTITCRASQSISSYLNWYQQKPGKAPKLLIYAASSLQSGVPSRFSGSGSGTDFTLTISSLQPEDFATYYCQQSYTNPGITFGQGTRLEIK
Work on B12 yielded a Kd [1] of 46.9 nM and a binding score [2] of 8.93.

B13: D041 (antibody, V domains shown)
VH: EVQLVQSGAEVKKPGESLKISCKGSGYSFTSYWIGWVRQMPGKGLEWMGIIYPGDSDTRYSPSFQGQVTISADKSISTAYLQWSSLKASDTAMYYCARHPTVTGWFDPWGQGTLVTVSS
VL: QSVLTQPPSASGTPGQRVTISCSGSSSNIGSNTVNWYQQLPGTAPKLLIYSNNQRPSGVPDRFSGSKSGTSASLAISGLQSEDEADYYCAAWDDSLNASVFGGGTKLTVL
B13 gave a Kd [1] of 13.2 nM and a binding score [2] of 33.

B14: D138 (antibody, V domains shown)
VH: QVQLVESGGGVVQPGRSLRLSCAASGFTFSSYGMHWVRQAPGKGLEWVAVISYDGSNKYYADSVKGRFTISRDNSKNTLYLQMNSLRAEDTAVYYCAKRAPYYYGPGGIDYWGQGTLVTVSS
VL: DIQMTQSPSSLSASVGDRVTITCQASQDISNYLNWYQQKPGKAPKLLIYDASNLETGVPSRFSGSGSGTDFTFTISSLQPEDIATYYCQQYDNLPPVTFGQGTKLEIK
In the case of B14, the Kd [1] is reported as 201 nM and the binding score [2] is reported as 368.

B15: C2723 (antibody, V domains shown)
VH: QVQLQESGPGLVKPSETLSLTCTVSGGSVSSGSYYWSWIRQPPGKGLEWIGYIYYSGSTNYNPSLKSRVTISVDTSKNQFSLKLSSVTAADTAVYYCARGALYDSSGYYPELPVYWGQGTLVTVSS
VL: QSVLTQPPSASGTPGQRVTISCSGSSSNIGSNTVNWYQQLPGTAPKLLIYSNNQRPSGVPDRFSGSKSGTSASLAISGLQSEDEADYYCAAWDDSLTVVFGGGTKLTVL
With B15 the Kd [1] was 20.9 nM and the binding score [2] was 39.7.

B16: D048 (antibody, V domains shown)
VH: QLQLQESGPGLVKPSETLSLTCTVSGGSISSSSYYWGWIRQPPGKGLELIGTIYYSGSTYYNPSLKSRVTISVDTSKNQFSLKLSSVTAADTAVYYCARKGPYYYDRSGYYRPGPIDYWGQGTLVTVSS
VL: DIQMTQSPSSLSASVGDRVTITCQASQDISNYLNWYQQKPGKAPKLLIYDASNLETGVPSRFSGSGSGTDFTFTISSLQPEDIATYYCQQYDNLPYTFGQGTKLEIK
Binder B16 has a Kd [1] of 23.4 nM and a binding score [2] of 4.6.

B17: C2708 (antibody, V domains shown)
VH: EVQLVESGGVVVQPGGSLRLSCAASGFTFDDYAMHWVRQAPGKGLEWVSLISWDGGSTYYADSVKGRFTISRDNSKNSLYLQMNSLRAEDTALYYCAKDIEGGSGWSFDYWGQGTLVTVSS
VL: QSALTQPPSVSGSPGQSVTISCTGTSSDVGSYNRVSWYQQPPGTAPKLMIYEVSNRPSGVPDRFSGSKSGNTASLTISGLQAEDEADYYCSSYTSSSTVVFGGGTKLTVL
With B17 the Kd [1] was 597 nM and the binding score [2] was 7040.

B18: C2704 (antibody, V domains shown)
VH: EVQLVESGGDLVQPGGSLRLSCAASGFTFSTSWMHWVRQAPGKGLVWVSHINGDGSTTIYADSVKGRFTISRDNAKNTLYLQMNTLRAEDTAVYYCARNTGTHFDYWGQGTLVTVSS
VL: QSALTQPASVSGSPGQSITISCTGTSSDVGRYNYVSWYQQHPGKAPKVMIYDVSNRPSGVSNRFSGSKSGNTASLTISGLQAEDEADYYCSSYTSSSPWVFGGGTKLTVL
B18 showed a Kd [1] of 205 nM and a binding score [2] of 410.

B19: D068 (antibody, V domains shown)
VH: EVQLVESGGGLVKPGGSLRLSCAASGFTFSSYSMNWVRQAPGKGLEWVSSISSSSSYIYYADSVKGRFTISRDNAKNSLYLQMNSLRAEDTAVYYCARVDSSGWYTGDAFDIWGQGTMVTVSS
VL: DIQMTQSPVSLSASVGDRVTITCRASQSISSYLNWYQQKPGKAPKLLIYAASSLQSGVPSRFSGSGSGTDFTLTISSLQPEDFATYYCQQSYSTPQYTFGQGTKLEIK
Binder B19 has a Kd [1] of 196 nM and a binding score [2] of 286.

B20: D045 (antibody, V domains shown)
VH: EVQLVESGGGLVQPGGSLRLSCAASGFTFSSYSMNWVRQAPGKGLEWVSYISSSSSTIYYADSVKGRFTISRDNAKNSLYLQMNSLRDEDTAVYYCARHYGSGSSYYYYGMDVWGQGTTVTVSS
VL: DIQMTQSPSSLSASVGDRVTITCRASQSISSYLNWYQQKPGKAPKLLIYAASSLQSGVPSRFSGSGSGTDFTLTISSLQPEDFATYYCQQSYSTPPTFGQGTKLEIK
B20 gave a Kd [1] of 61.1 nM and a binding score [2] of 15.7.

B21: C2739 (antibody, V domains shown)
VH: EVQLVESGGGLVQPGGSLRLSCAASGFTFSSYWMSWVRQAPGKGLEWVANIKKDGSEKYYVDSVKGRFTISRDNDKNSLYLQMNSLRAEDTAVYYCARKKYYYGDFDYWGQGTLVTVSS
VL: NFMLTQPHSVSESPGKTVTISCTRSSGSIASNYVQWYQQRPGSSPTTVIYEDNQRPSGVPDRFSGSIDSSSNSASLTISGLKTEDEADYYCQSYDSIIREVFGGGTKLTVL
In the case of B21, the Kd [1] is reported as 287 nM and the binding score [2] is reported as 52.3.

B22: D067 (antibody, V domains shown)
VH: EVQLVESGGGLVQPGGSLRLSCAASGFIFSGYDMHWVRQAPGKGLEWVSAIGTAGDTYYPGSVKGRFILSRENAKNSLYLQMNSLRAGDTAVYYCARALYRFGELLGYDYWGQGTLVTVSS
VL: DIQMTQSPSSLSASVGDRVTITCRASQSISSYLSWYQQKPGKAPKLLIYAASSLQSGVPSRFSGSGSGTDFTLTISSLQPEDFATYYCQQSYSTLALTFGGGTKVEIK
In the case of B22, the Kd [1] is reported as 183 nM and the binding score [2] is reported as 352.

B23: C2705 (antibody, V domains shown)
VH: EVQLVQSGAEVKKPGESLKISCKGSGYSFTSYWIGWVRQMPGKGLEWMGIIYPGDSDTRYSPSFQGQVTISADKSISTAYLQWSSLKASDTAMYYCARPVVTDYWYFDLWGRGTLVTVSS
VL: not shown
For B23, the Kd [1] was 14 nM and the binding score [2] was 867.

B24: D125 (antibody, V domains shown)
VH: QVQLQESGPGLVKPSETLSLTCSVSGVSISSYYWSWIRQPPGKGLEWIGYIYYSGSTNYNPSLKSRVTISVDTSKNQFSLKLSSVTAADTAVYYCARVVGDGYNFGYYYYMDVWGKGTTVTVSS
VL: QSVLTQPPSVSAAPGQKVTISCSGSSSNIGNNYVSWYQQLPGTAPKLLIYENNKRPSGIPDRFSGSKSGTSATLGITGLQTGDEADYYCGTWDSSLSAYVFGTGTKVTVL
B24 gave a Kd [1] of 103 nM and a binding score [2] of 575.

B25: D066 (antibody, V domains shown)
VH: QVQLVQSGAEVKKPGASVKVSCKASEYTFTNYYMHWVRQAPGQGLEWMGIINPSAGSTSYAQKFQGRVRMTSDTSTNTVYMELSSLRSEDTAVYYCARGVLVPAAEYYFDYWGQGTLVTVSS
VL: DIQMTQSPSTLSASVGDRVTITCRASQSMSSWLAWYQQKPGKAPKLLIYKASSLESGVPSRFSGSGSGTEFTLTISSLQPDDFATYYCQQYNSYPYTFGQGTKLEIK
With B25 the Kd [1] was 7.6 nM and the binding score [2] was 11.9.

B26: C2709 (antibody, V domains shown)
VH: EVQLVESGGGLVQPGGSLRLSCAASGFTVSSNYMSWVRQAPGKGLEWVSVIYSGGSTYYADSVKGRFTISRDNSKNTLYLQMNSLRAEDTAVYYCARDNEHYGSGSLTLDYWGQGTLVTVSS
VL: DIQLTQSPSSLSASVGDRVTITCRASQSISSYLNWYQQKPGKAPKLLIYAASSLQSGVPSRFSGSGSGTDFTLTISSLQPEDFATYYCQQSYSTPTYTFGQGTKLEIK
In the case of B26, the Kd [1] is reported as 115 nM and the binding score [2] is reported as 5050.

— PMC9876794 (2022)
